According to paper PMC9157509:

Target: AB variant of cytochrome cb562 (forms the disulfide-linked dimer (AB)2) (UniProt P0ABE7)
Experiment: solution small-angle X-ray scattering

- stoichiometry N: 2
Substance: AB variant of cytochrome cb562 (forms the disulfide-linked dimer (AB)2) (from UniProt P0ABE7 23-128)
